# From the supplement of paper PMC10567573
# B1: MATN2 (parent)
# chain: VNVPGSFVCQCYSGYALAEDGKRC
# Variants of: B1
# Experiment: protein stability index of a GFP-peptide fusion (GPS, HEK-293T) (PSI 1-6); higher = more stable
# Conditions: c terminus: a fixed tail appended
# 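Note: lentivirally expressed fusions sorted by FACS into six bins by GFP to DsRed ratio, PSI derived from sequencing read proportions per bin multiplied by bin number.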
row,Variant,protein stability index
1,VNVPGSFVCQCYSGYALAEVGKRC,1.87
2,VNVPGSFVCQCYSGYALAEWGKRC,1.57
3,VNVPGSFVCQCYSGYALAECGKRC,3.42
4,VNVPGSFVCQCYSGYALAETGKRC,2.12
5,VNVPGSFVCQCYSGYALAEGGKRC,1.48
6,VNVPGSFVCQCYSGYALKEDGKRC,1.73
7,VNVPGSFVCQCYSGYALFEDGKRC,2.48
8,VNVPGSFVCQCYSGYALLEDGKRC,2.32
9,VNVPGSFVCQCYSGYALDEDGKRC,2.36
10,VNVPGSFVCQCYSGYALPEDGKRC,1.65
11,VNVPGSFVCQCYSGYALNEDGKRC,2.09
12,VNVPGSFVCQCYSGYALEEDGKRC,2.56
13,VNVPGSFVCQCYSGYALMEDGKRC,1.34
14,VNVPGSFVCQCYSGYALHEDGKRC,2.55
15,VNVPGSFVCQCYSGYALSEDGKRC,1.93
16,VNVPGSVVCQCYSGYALAEDGKRC,2.19
17,VNVPGSSVCQCYSGYALAEDGKRC,2.62
18,VNVPGSHVCQCYSGYALAEDGKRC,3.02
19,VNVPGSDVCQCYSGYALAEDGKRC,2.56
20,VNVPGSIVCQCYSGYALAEDGKRC,1.92
21,VNVPGSTVCQCYSGYALAEDGKRC,2.88
22,VNVPGSRVCQCYSGYALAEDGKRC,3.21
23,VNVPGSNVCQCYSGYALAEDGKRC,1.06
24,VNVPGSQVCQCYSGYALAEDGKRC,2.14

row,Variant,protein stability index
1,VNVPGSFVCQIYSGYALAEDGKRC,1.72
2,VNVPGSFVCQHYSGYALAEDGKRC,2.65
3,VNVPGSFVCQGYSGYALAEDGKRC,2.75
4,VNVPGSFVCQQYSGYALAEDGKRC,2.94
5,VNVPGSFVCQDYSGYALAEDGKRC,4.08
6,VNVPGSFVCQMYSGYALAEDGKRC,1.86
7,VNVPGSFVCQEYSGYALAEDGKRC,3.27
8,VNVPGSFVCQFYSGYALAEDGKRC,2.48
9,VNVPGSFVCQLYSGYALAEDGKRC,2.19
10,VNVPGSFVCQCYSGYALAEDGKRM,2.06
11,VNVPGSFVCQCYSGYALAEDGKRE,1.94
12,VNVPGSFVCQCYSGYALAEDGKRG,2.18
13,VNVPGSFVCQCYSGYALAEDGKRK,2.5
14,VNVPGSFVCQCYSGYALAEDGKRY,2.41
15,VNVPGSFVCQCYSIYALAEDGKRC,3.06
16,VNVPGSFVCQCYSLYALAEDGKRC,3.03
17,VNVPGSFVCQCYSNYALAEDGKRC,1.56
18,VNVPGSFVCQCYSCYALAEDGKRC,2.16
19,VNVPGSFVCQCYSYYALAEDGKRC,1.86
20,VNVPGSFVCQCYSWYALAEDGKRC,1.93
21,VNVPGSFVCSCYSGYALAEDGKRC,2.29
22,VNVPGSFVCWCYSGYALAEDGKRC,2.32
23,VNVPGSFVCTCYSGYALAEDGKRC,2.52
24,VNVPGSFVCACYSGYALAEDGKRC,1.56

row,Variant,protein stability index
1,VNVPGSFVCNCYSGYALAEDGKRC,2.31
2,VNVPGSFVCCCYSGYALAEDGKRC,1.7
3,VNVPGSFVCECYSGYALAEDGKRC,1.55
4,VNVPGSFVCMCYSGYALAEDGKRC,2.88
5,VNVPGSFVCPCYSGYALAEDGKRC,2.15
6,VNVPGSFVCGCYSGYALAEDGKRC,1.65
7,VNVPGSFVCVCYSGYALAEDGKRC,2.08
8,VNVPGSFVCQCYCGYALAEDGKRC,3.25
9,VNVPGSFVCQCYYGYALAEDGKRC,1.9
10,VNVPGSFVCQCYLGYALAEDGKRC,2.52
11,VNVPGSFVCQCYAGYALAEDGKRC,2.39
12,VNVPGSFVCQCYKGYALAEDGKRC,1.58
13,VNVPGSFVCQCYWGYALAEDGKRC,3.15
14,VNVPGSFVCQCYDGYALAEDGKRC,2.17
15,VNVPGSFVCQCYQGYALAEDGKRC,1.5
16,VNVPGSFVCQCYSGYALAEDSKRC,2.36
17,VNVPGSFVCQCYSGYALAEDWKRC,1.3
18,VNVPGSFVCQCYSGYALAEDHKRC,2.41
19,VNVPGSFVCQCYSGYALAEDEKRC,1.84
20,VNVPGSFVCQCYSGYALAEDNKRC,1.93
21,VNVPGSFVCQCYSGYALAEDRKRC,2.08
22,VYVPGSFVCQCYSGYALAEDGKRC,1.41
23,VGVPGSFVCQCYSGYALAEDGKRC,1.89
24,VCVPGSFVCQCYSGYALAEDGKRC,2.12

row,Variant,protein stability index
1,VAVPGSFVCQCYSGYALAEDGKRC,1.9
2,VQVPGSFVCQCYSGYALAEDGKRC,2.28
3,VSVPGSFVCQCYSGYALAEDGKRC,1.82
4,VMVPGSFVCQCYSGYALAEDGKRC,1.71
5,VIVPGSFVCQCYSGYALAEDGKRC,1.75
6,VPVPGSFVCQCYSGYALAEDGKRC,2.75
7,VWVPGSFVCQCYSGYALAEDGKRC,1.79
8,VLVPGSFVCQCYSGYALAEDGKRC,2.28
9,VHVPGSFVCQCYSGYALAEDGKRC,1.97
10,VNVPGSFVCQCYSGWALAEDGKRC,1.65
11,VNVPGSFVCQCYSGHALAEDGKRC,1.91
12,VNVPGSFVCQCYSGLALAEDGKRC,2.19
13,VNVPGSFVCQCYSGKALAEDGKRC,1.98
14,VNVPGSFVCQCYSGEALAEDGKRC,2.5
15,VNVPGSFVCQCYSGFALAEDGKRC,2.38
16,VNVPGSFVCQCYSGNALAEDGKRC,2.19
17,VNVPGSFVCQCYSGCALAEDGKRC,2.77
18,VNVPGTFVCQCYSGYALAEDGKRC,2.12
19,VNVPGCFVCQCYSGYALAEDGKRC,2.05
20,VNVPGSFVCQCYSGYALASDGKRC,1.43
21,VNVPGSFVCQCYSGYALAKDGKRC,2
22,VNVPGSFVCQCYSGYALAADGKRC,1.93
